# Assay results taken from US20090111754.
# T1: p65-P6
# T1 chain: NGLLSGDEDFSS
# T2: p65-P7
# T2 chain: NGLLAGDEDFSS
# T3: p65-P8
# T3 chain: NGLLSGDEDFSA
# T4: p65-P1
# T4 chain: QLRRPSDRELSE
# B1: IKK complex immunoprecipitated from whole-cell extracts of TNF-treated cells (protein)
# chain 1: MERPPGLRPGAGGPWEMRERLGTGGFGNVCLYQHRELDLKIAIKSCRLELSTKNRERWCHEIQIMKKLNHANVVKACDVPEELNILIHDVPLLAMEYCSGGDLRKLLNKPENCCGLKESQILSLLSDIGSGIRYLHENKIIHRDLKPENIVLQDVGGKIIHKIIDLGYAKDVDQGSLCTSFVGTLQYLAPELFENKPYTATVDYWSFGTMVFECIAGYRPFLHHLQPFTWHEKIKKKDPKCIFACEEMSGEVRFSSHLPQPNSLCSLVVEPMENWLQLMLNWDPQQRGGPVDLTLKQPRCFVLMDHILNLKIVHILNMTSAKIISFLLPPDESLHSLQSRIERETGINTGSQELLSETGISLDPRKPASQCVLDGVRGCDSYMVYLFDKSKTVYEGPFASRSLSDCVNYIVQDSKIQLPIIQLRKVWAEAVHYVSGLKEDYSRLFQGQRAAMLSLLRYNANLTKMKNTLISASQQLKAKLEFFHKSIQLDLERYSEQMTYGISSEKMLKAWKEMEEKAIHYAEVGVIGYLEDQIMSLHAEIMELQKSPYGRRQGDLMESLEQRAIDLYKQLKHRPSDHSYSDSTEMVKIIVHTVQSQDRVLKELFGHLSKLLGCKQKIIDLLPKVEVALSNIKEADNTVMFMQGKRQKEIWHLLKIACTQSSARSLVGSSLEGAVTPQTSAWLPPTSAEHDHSLSCVVTPQDGETSAQMIEENLNCLGHLSTIIHEANEEQGNSMMNLDWSWLTE
# chain 2: MSWSPSLTTQTCGAWEMKERLGTGGFGNVIRWHNQETGEQIAIKQCRQELSPRNRERWCLEIQIMRRLTHPNVVAARDVPEGMQNLAPNDLPLLAMEYCQGGDLRKYLNQFENCCGLREGAILTLLSDIASALRYLHENRIIHRDLKPENIVLQQGEQRLIHKIIDLGYAKELDQGSLCTSFVGTLQYLAPELLEQQKYTVTVDYWSFGTLAFECITGFRPFLPNWQPVQWHSKVRQKSEVDIVVSEDLNGTVKFSSSLPYPNNLNSVLAERLEKWLQLMLMWHPRQRGTDPTYGPNGCFKALDDILNLKLVHILNMVTGTIHTYPVTEDESLQSLKARIQQDTGIPEEDQELLQEAGLALIPDKPATQCISDGKLNEGHTLDMDLVFLFDNSKITYETQISPRPQPESVSCILQEPKRNLAFFQLRKVWGQVWHSIQTLKEDCNRLQQGQRAAMMNLLRNNSCLSKMKNSMASMSQQLKAKLDFFKTSIQIDLEKYSEQTEFGITSDKLLLAWREMEQAVELCGRENEVKLLVERMMALQTDIVDLQRSPMGRKQGGTLDDLEEQARELYRRLREKPRDQRTEGDSQEMVRLLLQAIQSFEKKVRVIYTQLSKTVVCKQKALELLPKVEEVVSLMNEDEKTVVRLQEKRQKELWNLLKIACSKVRGPVSGSPDSMNASRLSQPGQLMSQPSTASNSLPEPAKKSEELVAEAHNLCTLLENAIQDTVREQDQSFTALDWSWLQTEEEEHSCLEQAS
# Key:
# [1] = target: T1, p65-P6
# [2] = target: T2, p65-P7
# [3] = target: T3, p65-P8
# [4] = target: p65-P2
# [5] = target: T4, p65-P1
protein,measurement,setting,value
B1,phosphorylation of peptide substrate in immunocomplex kinase assay,[1],precipitated IKK complex can phosphorylate p65-P1 and p65-p6
same,phosphorylation of peptide substrate in immunocomplex kinase assay,[2],"p65-peptides in which Ser 276, 529 or 536 were mutated into alanine did not undergo phosphorylation by the IKK complex"
same,phosphorylation of peptide substrate in immunocomplex kinase assay,[3],"p65-peptides in which Ser 276, 529 or 536 were mutated into alanine did not undergo phosphorylation by the IKK complex"
same,phosphorylation of peptide substrate in immunocomplex kinase assay,[4],"p65-peptides in which Ser 276, 529 or 536 were mutated into alanine did not undergo phosphorylation by the IKK complex"
same,phosphorylation of peptide substrate in immunocomplex kinase assay,[5],precipitated IKK complex can phosphorylate p65-P1 and p65-p6
